The source of these data is article PMC4676782.

Where two headings read alike, the source gives them in different places.

Data set [1] addresses hCES1 N79Q (aglycosylated hCES1) (human) (UniProt P23141). Description: SEC; HiLoad 16/60 Superdex 200, 200 mM NaCl, 20 mM Tris-HCl, pH 7.5; molecular weight estimated from globular protein standards.
The target is the same in data set [2]. Nature of the data set: AUC; sedimentation velocity, 20°C, 2, 1.0 and 0.5 mg/mL protein in 20 mM TrisHCl, pH 7.5, 200 mM NaCl, 40,000 rpm; c(S) analysis with SEDFIT.
Data set [3] has as its target Human Carboxylesterase 1 (hCES1), wild type, glycosylated (human) (UniProt P23141). Nature of the data set: SEC; HiLoad 16/60 Superdex 200, 200 mM NaCl, 20 mM Tris-HCl, pH 7.5; molecular weight estimated from globular protein standards.
Data set [4] has the same target. Description: AUC; sedimentation velocity, 20°C, 2, 1.0 and 0.5 mg/mL protein in 20 mM TrisHCl, pH 7.5, 200 mM NaCl, 40,000 rpm; c(S) analysis with SEDFIT.
Data set [5] concerns the target hCES1 S221A (catalytically inactive mutant) (human) (UniProt P23141). Nature of the data set: SEC; HiLoad 16/60 Superdex 200, 200 mM NaCl, 20 mM Tris-HCl, pH 7.5; molecular weight estimated from globular protein standards.
Data set [6] has the same target. Nature of the data set: AUC; sedimentation velocity, 20°C, 2, 1.0 and 0.5 mg/mL protein in 20 mM TrisHCl, pH 7.5, 200 mM NaCl, 40,000 rpm; c(S) analysis with SEDFIT.
For data set [7] the following is noted: N-glycosylation at N79.
The nature of data set [8]: size exclusion chromatography. The following applies: glycan lost; control: glycosylated hCES1. On the technique in general: SEC sorts molecules by how far they enter the pores of the column.
Data set [9] is described as follows: 4-NPA kinetics, allosteric sigmoidal fit. As to conditions: glycan lost; control: glycosylated hCES1.
Data set [10] in a line: crystal structure superposition, Cα rmsd. The following applies: glycan lost; control: glycosylated hCES1 structure (5a7f).
Data set [11] is described as follows: 4-NPA hydrolysis, A405, specific activity. The following applies: glycan lost; control: glycosylated hCES1.
Data set [12] in a line: sedimentation velocity analytical ultracentrifugation. The following applies: glycan lost; control: glycosylated hCES1.

Turning to “hCES1 N79Q (aglycosylated hCES1) (from UniProt P23141 18-567) (enzyme)”, the stoichiometry N in data set [1] and in data set [2] was 3 throughout.

In the case of “Human Carboxylesterase 1 (hCES1), wild type, glycosylated (from UniProt P23141 18-567) (enzyme)”, the stoichiometry N in [3] and in data set [4] was 3 throughout.

“hCES1 S221A (catalytically inactive mutant) (from UniProt P23141 18-567) (enzyme)”: the stoichiometry N in [5] and in [6] was 3 each time.

B1: Human Carboxylesterase 1 (hCES1): N79Q (protein)
parent chain: MWLRAFILATLSASAAWGHPSSPPVVDTVHGKVLGKFVSLEGFAQPVAIFLGIPFAKPPLGPLRFTPPQPAEPWSFVKNATSYPPMCTQDPKAGQLLSELFTNRKENIPLKLSEDCLYLNIYTPADLTKKNRLPVMVWIHGGGLMVGAASTYDGLALAAHENVVVVTIQYRLGIWGFFSTGDEHSRGNWGHLDQVAALRWVQDNIASFGGNPGSVTIFGESAGGESVSVLVLSPLAKNLFHRAISESGVALTSVLVKKGDVKPLAEQIAITAGCKTTTSAVMVHCLRQKTEEELLETTLKMKFLSLDLQGDPRESQPLLGTVIDGMLLLKTPEELQAERNFHTVPYMVGINKQEFGWLIPMQLMSYPLSEGQLDQKTAMSLLWKSYPLVCIAKELIPEATEKYLGGTDDTVKKKDLFLDLIADVMFGVPSVIVARNHRDAGAPTYMYEFQYRPSFSSDMKPKTVIGDHGDELFSVFGAPFLKEGASEEEIRLSKMVMKFWANFARNGNPNGEGLPHWPEYNQKEGYLQIGANTQAAQKLKDKEVAFWTNLFAKKAVEKPPQTEHIEL
Take B1: in data set [7], the enzymatic_activity entry is “no change, specific activity 73 (hCES1) vs 98 (N79Q) µmol min-1 μg-1; Vmax 9.25 +/- 1.30 vs 10.92 +/- 2.01 μMmin-1; h 1.46 vs 1.57”; the expression_or_secretion result is given as “no change, 39 mg/L (N79Q, transient HEK293T) vs 64 mg/L (hCES1, stable HEK293 Gnt1-/-)”; the oligomerisation result is reported as “no change, trimer, apparent molecular weight 152 kDa”; the structure_or_conformation entry was “no change, rmsd 0.47 Å (vs hCES1) and 0.3 Å (vs S221A) for all Cα atoms”. Moreover, in data set [8], the oligomerisation entry is reported as “no change”. Besides, in data set [9], the “enzymatic_activity, other: Hill coefficient” value is “no change, 1.57 +/- 0.4 vs 1.46 +/- 0.26”; the “enzymatic_activity, other: Khalf” value is recorded as “no change, 1090 +/- 343.3 vs 1123 +/- 280.2”; the “enzymatic_activity, other: Vmax” value is reported as “no change, 10.92 +/- 2.01 vs 9.25 +/- 1.30”. The molecule further displayed a structure or conformation, other: rmsd to control in data set [10] of 0.47 Å. Besides, in data set [11], the “enzymatic_activity, other: specific activity” value is “no change, 98 vs 73, The purified aglycosylated enzyme was found to be more active than glycosylated hCES1”. In data set [12], the oligomerisation result is given as “no change”.

As a reminder, the stoichiometry N is a count of units in the complex or per binding partner.
